Laboratory results as given in paper PMC9405524, “Pre‐steady‐state kinetics and solvent isotope effects support the “billiard‐type” transport mechanism in Na ^+‐translocating pyrophosphatase” (Protein Science : A Publication of the Protein Society, 2022).

Substrate: O=P(O)(O)OP(=O)(O)O
Assay: PPi hydrolysis in inverted membrane vesicles, automatic Pi analyzer, two-site dimer equation
Format: biochemical, Thermotoga maritima
Details: 40°C, pH 7.2, 0.1 M MOPS-KOH, 5 mM Mg2+, 10 mM NaCl, first (stronger) site of the dimer, concentration counted as Mg2PPi complex
Description: PPi hydrolysis in inverted membrane vesicles, automatic Pi analyzer, two-site dimer equation on Tm‐mPPase (Thermotoga maritima membrane pyrophosphatase)

B1: Tm‐mPPase (Thermotoga maritima membrane pyrophosphatase) (Thermotoga maritima MSB8) (protein)
chain: MYVAALFFLIPLVALGFAAANFAAVVRKPEGTERMKEISSYIRSGADSFLAHETKAIFKVAIVIAILLMIFTTWQTGVAFLLGAVMSASAGIVGMKMATRANVRVAEAARTTKKIGPALKVAYQGGSVMGLSVGGFALLGLVLVYLIFGKWMGQVDNLNIYTNWLGINFVPFAMTVSGYALGCSIIAMFDRVGGGVYTKAADMAADLVGKTELNLPEDDPRNPATIADNVGDNVGDVAGLGADLLESFVGAIVSSIILASYMFPIYVQKIGENLVHQVPKETIQALISYPIFFALVGLGCSMLGILYVIVKKPSDNPQRELNISLWTSALLTVVLTAFLTYFYLKDLQGLDVVGFRFGAISPWFSAIIGIFSGILIGFWAEYYTSYRYKPTQFLSKSSIEGTGMVISNGLSLGMKSVFPPTLTLVLGILFADYFAGLYGVAIAALGMLSFVATSVSVDSYGPIADNAGGISEMCELDPEVRKITDHLDAVGNTTAAIGKGFAIGSAIFAALSLFASYMFSQISPSDIGKPPSLVLLLNMLDARVIAGALLGAAITYYFSGYLISAVTKAAMKMVDEIRRQAREIPGLLEGKAKPDYNRCIEITSDNALKQMGYPAFIAILTPLVTGFLLGAEFVGGVLIGTVLSGAMLAILTANSGGAWDNAKKYLEAGNLEGYGKGSEPHKALVIGDTVGDPLKDTVGPSLDILIKIMSVVSVIAVSIFKHVHLF
notes: recombinant in E. coli C41(DE3), assayed in inverted membrane vesicles; homodimer, subunit mass 77 kDa
- Km: 1.41 ± 0.04 µM
